{"source": "patent US5972599", "about": "“High affinity nucleic acid ligands of cytokines” (NeXstar Pharmaceuticals, Inc.)", "binders": {"B1": {"name": "IFN-gamma 2'F/NH2-3 (ssRNA)", "RNA": "GGGAGGACGAUGCGGUUCAGAGGGUAGGUAAGUGGGAGGAAAAAUGCCGUAUCGCCUCAGACGACUCGCCCGA", "modifications": "2'-F all C, 2'-NH2 all U"}, "B2": {"name": "TNF 23A (ssRNA)", "RNA": "GGGAGCUCAGAAUAAACGCUCAACCUCAUCCUCGCACGCCAUCGCCUGAACCGUUCGACAUGAGGCCCGGAUCCGGC"}, "B3": {"name": "IFN-gamma 2'F-6 (ssRNA)", "RNA": "GGGAGGACGAUGCGGUGGAGUUUUAAUCUUACUUCCUACUCUUGCUCCACUGGGUCAGACGACUCGCCCGA", "modifications": "2'-F all C and U"}, "B4": {"name": "IL-4 2'F-9 (ssRNA)", "RNA": "GGGAGACAAGAAUAAACGCUCAAACGGCUGUAACAAACAAGGUGGGGGGCCACACAGAGCGGGUUCGACUUCGACAGGAGGCUCACAACAGGC", "modifications": "2'-F all C and U"}, "B5": {"name": "IFN-gamma 2'F-28 (ssRNA)", "RNA": "GGGAGGACGAUGCGGAGGGUUGGGAGGGGUCCUUCUUUUCGUCUGCGUGGACCGUCAGACGACUCGCCCGA", "modifications": "2'-F all C and U"}, "B6": {"name": "TNF 4A (ssRNA)", "RNA": "GGGAGCUCAGAAUAAACGCUCAACGCACUCGGACGGAAUCUCCGUAGGACACGUUCGACAUGAGGCCCGGAUCCGGC"}, "B7": {"name": "IFN-gamma 2'F-1 truncate (ssRNA)", "RNA": "GGGAGGACGAUGCGGACACCGUUAAUCUGAGGCCCUGUCCUAUUCCUUCACGCCUCAGA", "modifications": "2'-F all C and U"}, "B8": {"name": "TNF 6A (ssRNA)", "RNA": "GGGAGCUCAGAAUAAACGCUCAACCACUGGCUAGGAACUCGAGUACUGGGUGGUUCGACAUGAGGCCCGGAUCCGGC"}, "B9": {"name": "TNF 16C (ssRNA)", "RNA": "GGGAGCUCAGAAUAAACGCUCAACCUGGUGGUCGUGCGGCUGUCGCCUCAAGGUUCGACAUGAGGCCCGGAUCCGGC"}, "B10": {"name": "IL-4 2'F/NH2-9 (ssRNA)", "RNA": "GGGAGACAAGAAUAAACGCUCAAAGAGUGCAGGUCUGGGGCGCCACAAUUACAACGGCAAUAAUUCGACAGGAGGCUCACAACAGGC", "modifications": "2'-F all C, 2'-NH2 all U"}, "B11": {"name": "TNF 14C (ssRNA)", "RNA": "GGGAGCUCAGAAUAAACGCUCAACGGCUUGCAGGUCGCCGAAAUGACCGCACAUUCGACAUGAGGCCCGGAUCCGGC"}, "B12": {"name": "IL-4 2'NH2-29 truncate (ssRNA)", "RNA": "GGGACGCUCAAGAGCUGGUGAGCCACGUAUACGGCCUUAGGGGCUUGGGCG", "modifications": "2'-NH2 all C and U"}, "B13": {"name": "IFN-gamma 2'F-16 (ssRNA)", "RNA": "GGGAGGACGAUGCGGCAUCCCUAGAGCAGCCAGCCGGAAAGAAGUCACGCCUGCUCAGACGACUCGCCCGA", "modifications": "2'-F all C and U"}, "B14": {"name": "IFN-gamma 2'F-1 (ssRNA)", "RNA": "GGGAGGACGAUGCGGACACCGUUAAUCUGAGGCCCUGUCCUAUUCCUUCACGCCUCAGACGACUCGCCCGA", "modifications": "2'-F all C and U"}}, "key": {"[1]": {"molecular_target": "T1, IFN-gamma (Homo sapiens, UniProt P01579 P01579:24-161)", "T1 sequence (P01579 24-161, one chain of several)": "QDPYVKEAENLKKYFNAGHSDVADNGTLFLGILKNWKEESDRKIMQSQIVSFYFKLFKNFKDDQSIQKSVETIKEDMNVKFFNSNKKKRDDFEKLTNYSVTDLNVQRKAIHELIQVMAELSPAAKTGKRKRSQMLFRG", "test": "filter; full-length", "settings": "tags: Genzyme (Cambridge MA); Upstate Biotechnology for early SELEX rounds; chain copies: 2 inferred", "method": "(§1) The determination of equilibrium dissociation constants (Kds) for RNA pools was made subsequent to rounds 5, 8, 12, and 17 to monitor the progress of each SELEX. The Kds of RNA pools for mouse IFN-gamma (Genzyme Inc., Cambridge Mass.) were also determined after rounds 8 and 17. Kds were determined for individual ligands after cloning and sequencing of RNA pools and truncations (described below). Nitrocellulose filter binding was used to determine Kds as follows: filter discs were placed into a vacuum manifold and wetted with 5 ml of mPBS buffer. ^32P-labeled-RNA was incubated with serial dilutions of IFN-gamma in binding buffer for 5–10 min at 37° C. to allow binding to occur. […] The filter discs were dried and counted in a liquid scintillation counter (Beckmann Instruments, Palo Alto Calif.). Equilibrium dissociation constants were determined by least square fitting of the data points using the Kaleidagraph™ graphics program (Synergy Software, Reading Pa.). […] Biphasic binding constants were calculated according to standard procedures. Kds were determined by least square fitting of the data points using the Kaleidagraph™ graphics program.\n(§2) The Kds of individual RNAs within each group were determined by nitrocellulose filter binding as described above. The Kds were determined using either a monophasic or biphasic least squares fit of the data."}, "[2]": {"molecular_target": "T2, TNF-alpha (Homo sapiens, UniProt P01375 P01375:77-233)", "T2 sequence (P01375 77-233, one chain of several)": "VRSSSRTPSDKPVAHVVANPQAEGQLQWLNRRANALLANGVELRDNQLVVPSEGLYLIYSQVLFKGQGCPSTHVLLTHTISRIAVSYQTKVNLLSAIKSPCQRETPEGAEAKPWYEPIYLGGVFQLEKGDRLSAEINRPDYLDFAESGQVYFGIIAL", "test": "competition; U937 cells; 3 points", "settings": "tags: Genzyme or R&D Systems; chain copies: 3 inferred", "method": "(§3) A receptor binding competition assay was used to determine the bioactivity of the RNA ligands. ^125I labelled hTNFα at 0.1 nM was incubated in 50 µl of binding medium (PBS with 0.5 mM Mg^++, 0.2% BSA, 0.02% sodium azide, 1 U/µl RNasin) for 15 min at 4° C. with serially diluted competitors at 10^-4 to 10^-11 M, and 1×10^4/µl U937 cells. Duplicate aliquots were subsequently removed, centrifuged through 2:1 dibutyl-phthalate:dinonyl-phthalate mixture to separate free and bound ^125I labelled hTNFα, and the radioactivity in the pellet was measured on a gamma counter. Nonspecific binding was determined by inclusion of a 200-fold molar excess of unlabeled TNF."}, "[3]": {"molecular_target": "T2, TNF-alpha", "test": "filter; class I", "settings": "tags: Genzyme or R&D Systems; chain copies: 3 inferred"}, "[4]": {"molecular_target": "T1, IFN-gamma", "test": "filter; biphasic 3.2/314 nM", "settings": "tags: Genzyme (Cambridge MA); Upstate Biotechnology for early SELEX rounds; chain copies: 2 inferred", "method": "as §1, §2"}, "[5]": {"molecular_target": "T3, IL-4 (Homo sapiens, UniProt P05112 P05112:25-153)", "T3 sequence (P05112 25-153, one chain of several)": "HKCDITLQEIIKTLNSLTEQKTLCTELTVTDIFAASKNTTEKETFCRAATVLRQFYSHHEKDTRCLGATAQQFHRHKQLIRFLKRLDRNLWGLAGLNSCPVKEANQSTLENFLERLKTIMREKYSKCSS", "test": "filter; full-length; mPBS 1 mM Mg, 0.01% HSA, 37 C", "settings": "tags: R&D Systems"}, "[6]": {"molecular_target": "T1, IFN-gamma", "test": "filter; truncate", "settings": "tags: Genzyme (Cambridge MA); Upstate Biotechnology for early SELEX rounds; chain copies: 2 inferred"}, "[7]": {"molecular_target": "T2, TNF-alpha", "test": "filter; class II", "settings": "tags: Genzyme or R&D Systems; chain copies: 3 inferred"}, "[8]": {"molecular_target": "T1, IFN-gamma", "test": "filter; biphasic 4.4/716 nM", "settings": "tags: Genzyme (Cambridge MA); Upstate Biotechnology for early SELEX rounds; chain copies: 2 inferred", "method": "as §1, §2"}, "[9]": {"molecular_target": "T2, TNF-alpha", "test": "competition; U937 cells", "settings": "tags: Genzyme or R&D Systems; chain copies: 3 inferred", "method": "as §3"}, "[10]": {"molecular_target": "T3, IL-4", "test": "filter; full-length", "settings": "tags: R&D Systems"}, "[11]": {"molecular_target": "T3, IL-4", "test": "competition; 0.7 nM 125I-IL-4, H-9 cells", "settings": "tags: R&D Systems", "protocol": "Following incubation, the tubes were spun (150×g, 5 min, 4° C.) and the supernatant was aspirated. The cell pellet was resuspended in 200 μl RPMI-HSA. 100 μl aliquots were centrifuged through a cushion of an equal volume of phthalate oils (dibutyl/dioctyl, 1:1 v/v). The tube was rapidly frozen in dry ice/ethanol and the tip containing the cell pellet was cut off and placed in a vial for gamma counting."}, "[12]": {"molecular_target": "T3, IL-4", "test": "filter; truncate", "settings": "tags: R&D Systems"}, "[13]": {"molecular_target": "T1, IFN-gamma", "test": "filter; biphasic 9.3/232 nM", "settings": "tags: Genzyme (Cambridge MA); Upstate Biotechnology for early SELEX rounds; chain copies: 2 inferred", "method": "as §1, §2"}, "[14]": {"molecular_target": "T1, IFN-gamma", "test": "filter; biphasic 6.8/320 nM; mPBS 1 mM Mg, 0.01% HSA, 37 C", "settings": "tags: Genzyme (Cambridge MA); Upstate Biotechnology for early SELEX rounds; chain copies: 2 inferred", "method": "as §1, §2"}}, "data": [{"binder": "B1", "values": [{"measurement": "Kd", "setting": "[1]", "value": 106, "unit": "nM"}]}, {"binder": "B2", "values": [{"measurement": "Ki", "setting": "[2]", "value": "~241", "unit": "nM"}, {"measurement": "Kd", "setting": "[3]", "value": 52, "unit": "nM"}]}, {"binder": "B3", "values": [{"measurement": "Kd", "setting": "[4]", "value": 3.2, "unit": "nM"}]}, {"binder": "B4", "values": [{"measurement": "Kd", "setting": "[5]", "value": 14.7, "unit": "nM"}]}, {"binder": "B5", "values": [{"measurement": "Kd", "setting": "[1]", "value": 35, "unit": "nM"}]}, {"binder": "GGGAGGACGAUGCGGCAGGUAAUUACAUGAAGGUGGGUUAGGUA (ssRNA, 2'-NH2 all C and U)", "note": "[IFN-gamma 2'NH2-30 truncate]", "values": [{"measurement": "Kd", "setting": "[6]", "value": 11, "unit": "nM"}]}, {"binder": "B6", "values": [{"measurement": "Kd", "setting": "[7]", "value": 320, "unit": "nM"}]}, {"binder": "B7", "values": [{"measurement": "Kd", "setting": "[8]", "value": 4.4, "unit": "nM"}]}, {"binder": "B8", "values": [{"measurement": "Kd", "setting": "[7]", "value": 120, "unit": "nM"}, {"measurement": "Ki", "setting": "[9]", "value": 9100, "unit": "nM"}]}, {"binder": "GGGAGGACGAUGCGGAGGGUUGGGAGGGGUCCUUCUU (ssRNA, 2'-F all C and U)", "note": "[IFN-gamma 2'F-28 truncate]", "values": [{"measurement": "Kd", "setting": "[6]", "value": 53, "unit": "nM"}]}, {"binder": "B9", "values": [{"measurement": "Ki", "setting": "[2]", "value": "~313", "unit": "nM"}, {"measurement": "Kd", "setting": "[3]", "value": 200, "unit": "nM"}]}, {"binder": "B10", "values": [{"measurement": "Kd", "setting": "[10]", "value": 3.3, "unit": "nM"}, {"measurement": "IC50", "setting": "[11]", "value": "~40", "unit": "nM"}]}, {"binder": "B11", "values": [{"measurement": "Kd", "setting": "[7]", "value": 60, "unit": "nM"}, {"measurement": "Ki", "setting": "[9]", "value": 930, "unit": "nM"}]}, {"binder": "B12", "values": [{"measurement": "Kd", "setting": "[12]", "value": 10, "unit": "nM"}]}, {"binder": "GGGAAACGGCUGUAACAAACAAGGUGGGGGGCCACACA (ssRNA, 2'-F all C and U)", "note": "[IL-4 2'F-9 truncate]", "values": [{"measurement": "Kd", "setting": "[12]", "value": 18, "unit": "nM"}]}, {"binder": "B13", "values": [{"measurement": "Kd", "setting": "[13]", "value": 9.3, "unit": "nM"}]}, {"binder": "B14", "values": [{"measurement": "Kd", "setting": "[14]", "value": 6.8, "unit": "nM"}]}]}
